From PMC6720793 (Molecules, 2019)

Biological target: human β2 microglobulin (Homo sapiens, UniProt P61769)
Sequence (P61769 21-119): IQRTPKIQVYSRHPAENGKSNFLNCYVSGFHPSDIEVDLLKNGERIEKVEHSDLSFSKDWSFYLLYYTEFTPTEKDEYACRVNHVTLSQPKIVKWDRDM

B1: CNb1 (VHH)
chain: QVQLQESGGGSVQAGGSLRLSCAASRCWFRQAPGKEREWVARYYADSVKGRFTFSQDNAKNTVYLQMDSLEPEDTATYYCCWGQGTQVTVSS
- Kd: 46 nM
